# Assay results published in patent publication US20110212853.
# B1: recombinant human dipeptidyl peptidase 4 (protein)
# chain: NKGTDDATADSRKTYTLTDYLKNTYRLKLYSLRWISDHEYLYKQENNILVFNAEYGNSSVFLENSTFDEFGHSINDYSISPDGQFILLEYNYVKQWRHSYTASYDIYDLNKRQLITEERIPNNTQWVTWSPVGHKLAYVWNNDIYVKIEPNLPSYRITWTGKEDIIYNGITDWVYEEEVFSAYSALWWSPNGTFLAYAQFNDTEVPLIEYSFYSDESLQYPKTVRVPYPKAGAVNPTVKFFVVNTDSLSSVTNATSIQITAPASMLIGDHYLCDVTWATQERISLQWLRRIQNYSVMDICDYDESSGRWNCLVARQHIEMSTTGWVGRFRPSEPHFTLDGNSFYKIISNEEGYRHICYFQIDKKDCTFITKGTWEVIGIEALTSDYLYYISNEYKGMPGGRNLYKIQLSDYTKVTCLSCELNPERCQYYSVSFSKEAKYYQLRCSGPGLPLYTLHSSVNDKGLRVLEDNSALDKMLQNVQMPSKKLDFIILNETKFWYQMILPPHFDKSKKYPLLLDVYAGPCSQKADTVFRLNWATYLASTENIIVASFDGRGSGYQGDKIMHAINRRLGTFEVEDQIEAARQFSKMGFVDNKRIAIWGWSYGGYVTSMVLGSGSGVFKCGIAVAPVSRWEYYDSVYTERYMGLPTPEDNLDHYRNSTVMSRAENFKQVEYLLIHGTADDNVHFQQSAQISKALVDVGVDFQAMWYTDEDHGIASSTAHQHIYTHMSHFIKQCFSLP
# Biological target: recombinant human MCP-1 N1pE (human MCP-1 with an N-terminal pyroglutamate)
protein,measurement,value
B1,"N-terminal cleavage, Maldi-TOF mass spectrometry","MCP-1 is protected by a N-terminal pGlu-residue, which confers resistance against N-terminal cleavage by aminopeptidases, e.g. DP4"
